Holding throughout (experiment): native gel or EMSA
Assay [1] has as its target 12 x 200 x 601 (12N200) nucleosome array, unmodified histones.
Assay [2] has as its target 12N200 nucleosome array assembled with linker histone H1.4 (UniProt P10412).
Assay [3] deals with 147 bp nucleosome core particle (N147), unmodified histones.
The target of assay [4] is H2A.Z/H3K9cme3 12N200 nucleosome array (UniProt P0C0S5).
For assay [5], the target named is H2A.Z/H3K9cme3 12N200 nucleosome array saturated with H1.4 (UniProt P0C0S5).
Assay [6] concerns the target N203 mononucleosome with a stoichiometric amount of linker histone H1.4 (UniProt P10412).
Assay [7] concerns the target symmetric 203 bp mononucleosome (N203), unmodified histones.

In the case of “HP1α (Heterochromatin Protein 1 alpha), wild type (from UniProt P45973 1-191) (natural protein)”, the K1/2 in assay [1] worked out at 0.71 µM; in assay [2], 2.15 µM; in assay [3], 2.29 µM; in assay [4], 0.23 µM; in assay [5], 1.15 µM; in assay [6], 1.26 µM. The substance also yielded a K1/2 in assay [7] of 0.58 µM.
